The record followed here is US20050049402A1 (Amgen, published 2005).

The chains are these.
B1: H/M BglI chimeric TNFα (human 1-36, murine 37-157) (ligand)
chain: VRSSSRTPSDKPVAHVVANPQAEGQLQWLNRRANALLANGMDLKDNQLVVPADGLYLVYSQVLFKGQGCPDYVLLTHTVSRFAISYQEKVNLLSAVKSPCPKDTPEGAELKPWYEPIYLGGVFQLEKGDQLSAEVNLPKYLDFAESGQVYFGVIAL
notes: Murine range is printed as 37-157 in human-aligned numbering; also called H/MBgl1; Hu/MBgl1
B2: 3.2 g1 (antibody, human IgG1, V domains shown)
VH: EVQLVQSGAEVKKPGESLKISCKTSEYSFTSYWIGWVRQMPGKGLEWMGIIYLGDSDTRYSPSFQGQVTISADKSISTAYLQWSSLKASDTAMYYCARSNWGLDYWGQGTLVTVSS
VL: QSVLTQPPSVSGAPGQRVTISCTGSSSNIGAGYDVHWYQQFPGTAPKLLIQGNSNRPSGVPDRFSGSKSGTSASLAITGLQAEDEADYYCQSYDSSLSGSVFGGGTKLTVL
B3: 250 (antibody, human IgG1, V domains shown)
VH: EVQLVESGGGLIQPGGSLRLSCAASGFTVSSNYMSWVRQAPGKGLEWVSVIYSGDRTYYADSVKGRFTISRDNSKNTLYLQMNSLRAEDTAVYYCARGEGGFDYWGQGTLVTVSS
VL: EIVMTQSPATLSVSPGERATLSCRASQSVTSNLAWYQQKPGQAPRLLIHGASIRATGLPARFSGSGSGTEFTLTISSLQSEDFAVYYCQQYNYWWTFGQGTKVEIK
notes: XENOMAX derived, recombinant human IgG1 kappa; also called 250Ab; SC250
B4: 269 (antibody, human IgG1, V domains shown)
VH: B3 VH with G26E, S31R
VL: B3 VL with T30S
notes: XENOMAX derived, recombinant human IgG1 kappa; also called 269Ab; SC269
B5: H/M PvuII chimeric TNFα (human 1-125, murine 126-157) (ligand)
chain: VRSSSRTPSDKPVAHVVANPQAEGQLQWLNRRANALLANGVELRDNQLVVPSEGLYLIYSQVLFKGQGCPSTHVLLTHTISRIAVSYQTKVNLLSAIKSPCQRETPEGAEAKPWYEPIYLGGVFQLEKGDQLSAEVNLPKYLDFAESGQVYFGVIAL
notes: also called Hu/M PVu11
B6: H/M HincII chimeric TNFα (human 1-91, murine 92-157) (ligand)
chain: B5 chain with I97V, Q102P, R103K, E104D, A111L
notes: Murine range printed 92-157 (human-aligned); also called Hu/M Hin C l1
B7: 299v1 (antibody, human IgG1, V domains shown)
VH: QVQLVESGGGVVQPGRSLRLSCAASGFTFSSYDMHWVRQAPGKGLEWVAVIWSDGSIKYYADSVKGRFTISRDNSKNTLYLQMNSLRAEDTAVYYCAREVESAMGGFYYNGMDVWGQGATVTVSS
VL: DIQMTQSPSSLSASVGDRVTITCRASQGIRIDLGWYQQKPGKAPKRLIYAASTLQSGVPSRFSGSGSGTEFIFTISSLQPEDFASYYCLQHKSYPLTFGGGTKVEIK
notes: XENOMAX derived, recombinant human IgG1 kappa; also called SC299V1
B8: 291 (antibody, human IgG1, V domains shown)
VH: QVQLVESGGSVVQPGRSLRLSCAASGFTFSNYGIHWVRQAPGKGLEWVAVIWSDGSNKYYADSVKGRFTISRDNSKNTLYLQMNSLRAEDTAVYYCARELPNSGSYSGYYYYYGMDVWGQGTTVTVSS
VL: B7 VL with I31N, T53S, I72T, F73L, S85T, K92C, S93C
notes: XENOMAX derived, recombinant human IgG1 kappa; also called 291 Ab; SC291
B9: 313 (antibody, human IgG1, V domains shown)
VH: QVQLVESGGGVVQPGRSLRLSCAASGFTFSNHDIHWVRQAPGKGLEWVAVIWSDGSNKYYADSVKGRFTISRDNSKNTLYLQMNSLRAEDTAVYYCAREKMATIKGYYYYGMDVWGQGTTVTVSS
VL: B7 VL with I31N, T53S, Q55E, T69P, I72T, F73L, S85T, K92N, K107Q
notes: Recombinant human IgG1 kappa; also called 313 Ab; SC313
B10: 4.17 g1 (antibody, human IgG1, V domains shown)
VH: QVQLVESGGGVVQPGRSLRLSCTTSGFTFSNYGMHWVRQAPGKGLEWVAVIWYDGSIKYYVDSVKGRFTISRDNSKNTLYLQMNSLRAEDTAVYYCAREKDCGGDCYSHYGMDVWGQGTTVTVSS
VL: B7 VL with I31N, T53S, I72T, F73L, S85T, K92M, Y94L
B11: 282 (antibody, human IgG1, V domains shown)
VH: QVQLVESGGGVVQPGRSLRLSCAASGFTVSSYGMHWVRQAPGKGLEWVAVIWSNGSNKYYADSVKGRFTISRDNSKNTLYLQMNSLRAEDTAVYYCARDNGVYVGYAYYYGMDVWGQGTTVTVSS
VL: B7 VL with I31N, T53S, Q55H, I72T, F73L, S85T, K92N, L96W, G100Q
notes: XENOMAX derived, recombinant human IgG1 kappa; also called 282 Ab; SC282
B12: Rabbit R014 Fab (Fab, V domains shown)
VH: QSLEESGGRLVTPGTPLTLTCTVSGIDLSSNTMGWFRRAPGKGLEWIGIIISSGTTYYASWVKGRFTISKTSTTVDLKITRPTTEDTATYFCARGWYEFNLWGPGTLVTVSS
VL: DVVMTQTPASVEAAVGGTVTIKCQASENIDILLAWYQQKVGQPPKLLIYRASKLASGAPSRFSGSGSGTEFTLTISDLECGDAATYYCQSNVGSTARSSYGNAFGGGTEVVVK
notes: Fab made by papain cleavage of R014

Positions count from the first letter of the chain named.

The target in one test is T1, p55-hFc (R&D) (UniProt P19438 30-211, limits assumed).
T1 construct: Bought reagent; also called TNFα receptor p55-hFc
T1 sequence (looked up): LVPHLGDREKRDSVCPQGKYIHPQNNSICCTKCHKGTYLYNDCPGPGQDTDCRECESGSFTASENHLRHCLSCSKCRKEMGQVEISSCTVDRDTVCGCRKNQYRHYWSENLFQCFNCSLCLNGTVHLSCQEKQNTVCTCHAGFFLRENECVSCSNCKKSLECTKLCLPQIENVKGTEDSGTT
Briefly: receptor-Fc binding to TNFα constructs.

The target of test [1] is T2, p75-hFc construct (R&D Systems) (UniProt P20333 23-257).
T2 construct: Described as similar to etanercept (Enbrel); also called p75s-hFc; Etanercept surrogate
T2 sequence (looked up): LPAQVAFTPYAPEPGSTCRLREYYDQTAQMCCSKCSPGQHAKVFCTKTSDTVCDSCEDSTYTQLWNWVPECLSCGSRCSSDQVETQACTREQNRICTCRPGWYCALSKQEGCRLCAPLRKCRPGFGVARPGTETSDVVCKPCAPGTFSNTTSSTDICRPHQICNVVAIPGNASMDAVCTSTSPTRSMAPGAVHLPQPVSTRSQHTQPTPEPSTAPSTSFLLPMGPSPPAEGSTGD
The experiment in a line: receptor-Fc binding to TNFα constructs.

Test [2] addresses T3, human TNFα (Tumor Necrosis Factor-alpha), soluble (human, UniProt P01375 77-233). Briefly: cell-based or functional assay.
Test [3] concerns the target T3, human TNFα (Tumor Necrosis …). Briefly: ELISA on chimeric/mutant TNFα. The source says: (§1) In order to define the binding site for different antibodies, a number of residues of hTNFα were mutated using site directed mutagenesis. A panel of antibodies was screened for binding by an ELISA assay. […] Histidine at position 73 was deleted, an example is illustrated in Table 19.

Test [4] addresses human TNFα R31Q, Q27E mutant (human, UniProt P01375 77-233). Briefly: ELISA on chimeric/mutant TNFα.
Excerpt: as §1

The target of a further test is human TNFα R31Q mutant (human, UniProt P01375 77-233). The experiment in a line: ELISA on chimeric/mutant TNFα.
Excerpt: as §1
(In general: An ELISA detects its analyte on a solid surface through an enzyme-linked reagent.)

The target in test [5] is T4, human TNFα with histidine 73 deleted (human, UniProt P01375 77-233).
T4 construct: Deletion of His73 written as two joined ranges; also called His 73del
The experiment in a line: ELISA on chimeric/mutant TNFα.
Excerpt: as §1

Another test addresses human TNFα R131Q mutant (human, UniProt P01375 77-233). The experiment in a line: ELISA on chimeric/mutant TNFα.
Excerpt: as §1

The target in test [6] is T3, human TNFα (Tumor Necrosis …). Briefly: KinExA, TNFα counted as one trimer. As to the method: (§2) The kinetic measurements of the anti-TNFα antibodies were evaluated using KinExA® and BIACORE® technologies. The KinExA® method involves solution-based determination of formal affinity measurements at equilibrium. To measure the binding kinetics of each human anti-TNFα antibody, two experiments in replicates of three were performed. In both experiments a known concentration of antigen was titrated and a different antibody concentration was added to each antigen titration and allowed to reach binding equilibrium. […] The results were analyzed by dual curve analysis. […] In addition, to negate the possibility of avidity effects, Fab fragments were generated by papain cleavage and the kinetic analysis was repeated (see Table 24).

For test [7] the target is unchanged. The experiment in a line: KinExA, TNFα counted as three monomers. As for the experimental part:
as §2
Background: Kinetic exclusion samples the free partner from a solution-phase mixture.

For test [8], the target named is B6. Briefly: ELISA on chimeric/mutant TNFα.
Excerpt: as §1

Test [9] deals with B5. Briefly: ELISA on chimeric/mutant TNFα.
Excerpt: as §1

For test [10], the target named is B1. Briefly: ELISA on chimeric/mutant TNFα.
Excerpt: as §1

The target in test [11] is T3, human TNFα (Tumor Necrosis …). The experiment in a line: KinExA, Fab from papain cleavage. As to the method: as §2

T4 sequence (P01375 other isoform, or with tags, fused parts or gaps): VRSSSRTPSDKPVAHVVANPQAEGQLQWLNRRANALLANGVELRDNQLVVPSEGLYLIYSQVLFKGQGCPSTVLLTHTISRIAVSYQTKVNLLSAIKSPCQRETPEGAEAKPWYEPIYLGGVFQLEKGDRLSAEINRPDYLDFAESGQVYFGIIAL

As for B1, the binding result (with p55-hFc (R&D); in [1]) was “binds” in each case.
With B2, in [2], the “IC50 1 hr Pre-incubation, TNF induced apoptosis in MCF-7 cells” value was 93.8 pM and the “IC50 18 hr Pre-incubation, TNF induced apoptosis in MCF-7 cells” value stood at 38.6 pM.
Turning to B3, the binding result (in test [3]; in test [4]; in the test with human TNFα R31Q mutant; in test [5]; with human TNFα R131Q mutant) was “binds” in each case.
On to B4, for which the binding result (in [3]; in test [4]; with human TNFα R31Q mutant; in test [5]; in the test with human TNFα R131Q mutant) was “binds” throughout.
As to B5, the binding result (in the test with p55-hFc (R&D); in test [1]) was “binds” throughout.
For B6, the binding result (with p55-hFc (R&D); in test [1]) was “binds” throughout.
The term Kd denotes the concentration at which binding is half-saturated. Read a low Kd as a tighter complex. As to B7, in [6], binding was characterised by a dissociation constant (Kd) of 0.63 pM, the “Kd (M) High” value is 9.2e-13 M and the “Kd (M) Low” value turned out to be 4.3e-13 M. In [7], binding was characterised by a dissociation constant (Kd) of 1.89 pM, the “Kd (M) High” value was found to be 2.76e-12 M and the “Kd (M) Low” value amounted to 1.29e-12 M.
Consider B8, for which the binding result is given as “binds” in [8]; “no binding” in the test with human TNFα R31Q mutant; “binds” with human TNFα R131Q mutant; “binds” in test [9]; “binds” in test [10].
Consider B9, for which the binding result in test [8] is recorded as “binds”; in test [3], “binds”; with human TNFα R31Q mutant it was “no binding”; in test [5], “binds”; in the test with human TNFα R131Q mutant, “binds”; in test [9], “binds”. Also, the binding result in [10] is “binds”.
As for B10, in test [2], the “IC50 1 hr Pre-incubation, TNF induced apoptosis in MCF-7 cells” value is 256 pM and the “IC50 18 hr Pre-incubation, TNF induced apoptosis in MCF-7 cells” value came to 40.4 pM.
On to B11, for which the binding result (in [3]; in [4]; in the test with human TNFα R31Q mutant; in [5]; with human TNFα R131Q mutant) was “binds” each time.
Regarding B12, in [11], the Kd was determined as 0.638 pM, the “Kd (M) High” value turned out to be 1.94e-10 M and the “Kd (M) Low” value was determined as 2.09e-15 M.
